Test results published in paper PMC3229523, “Identification of Lactoferricin B Intracellular Targets Using an Escherichia coli Proteome Chip” (PLoS ONE, 2011).
Ends that are not written are not given here. * marks the point of attachment. Biotin = O=C1N[C@H]2[C@H](CS[C@H]2CCCCC(=O)*)N1

Key:
Assay in all cases: peptide or protein array; E. coli proteome chip: purified His-tagged proteins printed in duplicate on Fullmoon slides, blocked with 1% BSA; 10 nM N-terminal biotinylated LfcinB with 1% BSA, room temperature, 1 h; detected with DyLight 649-labeled streptavidin, ratio to DyLight 549-labeled anti-His antibody; ProCAT normalisation, local cut-off; triplicate chips
Conditions in all cases: both partners purified
[1] = target: T1, NrdB (E. coli K-12, UniProt P69924 1-376)
T1 construct: NrdB, E. coli K-12
T1 sequence (looked up): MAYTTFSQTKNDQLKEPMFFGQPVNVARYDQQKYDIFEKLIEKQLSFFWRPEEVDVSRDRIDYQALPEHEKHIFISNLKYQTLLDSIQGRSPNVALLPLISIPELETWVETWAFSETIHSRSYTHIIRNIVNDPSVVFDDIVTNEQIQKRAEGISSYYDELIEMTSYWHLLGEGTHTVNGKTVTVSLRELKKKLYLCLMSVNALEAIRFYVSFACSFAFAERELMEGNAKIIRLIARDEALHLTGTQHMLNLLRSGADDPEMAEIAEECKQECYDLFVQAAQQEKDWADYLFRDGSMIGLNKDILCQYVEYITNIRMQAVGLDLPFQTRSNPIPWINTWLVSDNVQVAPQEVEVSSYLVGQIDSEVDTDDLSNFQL

[2] = target: T2, YbcQ (E. coli K-12, UniProt Q47274 1-127)
T2 construct: YbcQ, E. coli K-12
T2 sequence (looked up): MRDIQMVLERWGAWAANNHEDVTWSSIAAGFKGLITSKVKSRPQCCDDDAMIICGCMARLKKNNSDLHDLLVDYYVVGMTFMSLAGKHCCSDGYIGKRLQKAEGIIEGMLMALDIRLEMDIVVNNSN

[3] = target: T3, YdaW (E. coli K-12, UniProt P76066 1-186)
T3 construct: YdaW, E. coli K-12
T3 sequence (looked up): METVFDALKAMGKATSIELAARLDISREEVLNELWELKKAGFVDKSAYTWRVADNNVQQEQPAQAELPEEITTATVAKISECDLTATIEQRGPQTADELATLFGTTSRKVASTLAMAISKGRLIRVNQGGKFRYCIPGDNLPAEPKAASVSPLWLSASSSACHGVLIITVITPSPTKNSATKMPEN

[4] = target: T4, YijC (E. coli K-12, UniProt P0ACU5 1-234)
T4 construct: YijC, E. coli K-12
T4 sequence (looked up): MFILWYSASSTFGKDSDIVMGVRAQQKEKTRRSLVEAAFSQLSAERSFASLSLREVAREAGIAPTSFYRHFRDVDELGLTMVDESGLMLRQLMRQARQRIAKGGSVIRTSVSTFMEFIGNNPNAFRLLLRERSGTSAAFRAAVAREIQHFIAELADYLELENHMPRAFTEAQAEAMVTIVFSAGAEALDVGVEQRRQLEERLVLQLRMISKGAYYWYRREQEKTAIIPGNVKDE

Measured: binding result

B1: N-terminal biotinylated Lactoferricin B (peptide, UniProt P24627 36-60, looked up)
peptide: Biotin-FKCRRWQWRMKKLGAPSITCVRRAF
modifications: ends and bridges not checked
notes: lactoferricin B (LfcinB), cationic antimicrobial peptide of 25 amino acids; also called biotinylated LfcinB; biotin-labeled LfcinB; source: bought: Kelowna Inc
binds: all assays above
